Legend:
StCsm6’ (Csm6’) [1] = target: T1, StCsm6’ (Csm6’) (Streptococcus thermophilus, UniProt A0A0A7HFE6); test: X-ray crystallography, […] Å; format: binding; settings: CARF domain site at dimer; occupancy 0.50, mixed with cleaved product
T1 construct: full length, 386 residues, CARF 1-173, 6H 174-239, HEPN 240-386; E. coli C43(DE3), pEV5HisTEV, 8-His tag cut by TEV; symmetrical homodimer
T1 sequence (A0A0A7HFE6 1-386): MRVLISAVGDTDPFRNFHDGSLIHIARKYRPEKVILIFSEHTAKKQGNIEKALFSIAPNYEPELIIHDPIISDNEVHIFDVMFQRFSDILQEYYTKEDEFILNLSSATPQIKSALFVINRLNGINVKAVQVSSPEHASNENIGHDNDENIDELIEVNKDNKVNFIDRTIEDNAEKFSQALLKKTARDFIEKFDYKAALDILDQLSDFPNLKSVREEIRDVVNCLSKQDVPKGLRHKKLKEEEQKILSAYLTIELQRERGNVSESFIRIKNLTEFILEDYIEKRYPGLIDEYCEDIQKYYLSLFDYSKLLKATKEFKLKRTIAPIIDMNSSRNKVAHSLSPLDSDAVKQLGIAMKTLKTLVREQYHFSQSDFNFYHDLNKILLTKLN

StCsm6’ (Csm6’) [2] = target: T1, StCsm6’ (Csm6’); test: fluorogenic RNase activation assay (RNaseAlert FAM); format: biochemical; settings: activator, CARF domain; 1 µM dimer, 125 nM reporter RNA, MES pH 6.0, 30 mM NaCl, 20% glycerol, 45 °C, 30 min
[3] = target: the molecule itself; test: crystal structure; StCsm6’ co-crystallised with cA6 (1:1.5 molar ratio), 1.96 Å; homodimer
[4] = target: the molecule itself; test: pulse dipolar EPR spectroscopy (PELDOR/DEER); spin-labelled protein at 50 μM in deuterated buffer with 50% glycerol, frozen solution, 50 K, Q-band, with and without 25 μM cA6; distances between spin labels in the two monomers

Nc1ncnc2c1ncn2[C@@H]1O[C@@H]2COP(=O)(O)O[C@H]3[C@@H](O)[C@H](n4cnc5c(N)ncnc54)O[C@@H]3COP(=O)(O)O[C@H]3[C@@H](O)[C@H](n4cnc5c(N)ncnc54)O[C@@H]3COP(=O)(O)O[C@H]3[C@@H](O)[C@H](n4cnc5c(N)ncnc54)O[C@@H]3COP(=O)(O)O[C@H]3[C@@H](O)[C@H](n4cnc5c(N)ncnc54)O[C@@H]3COP(=O)(O)O[C@H]3[C@@H](O)[C@H](n4cnc5c(N)ncnc54)O[C@@H]3COP(=O)(O)O[C@H]2[C@H]1O [cA6, cyclic hexa-adenylate]
X-ray crystallography, 1.96 Å (StCsm6’ (Csm6’) [1]): electron density consistent with a molecule of cA6 bound to the StCsm6’ dimer | concentration for full activation (StCsm6’ (Csm6’) [2]): ~ 100 nM

B1: Streptococcus thermophilus Csm6’ (enzyme, UniProt A0A0A7HFE6 1-386, looked up)
chain: MRVLISAVGDTDPFRNFHDGSLIHIARKYRPEKVILIFSEHTAKKQGNIEKALFSIAPNYEPELIIHDPIISDNEVHIFDVMFQRFSDILQEYYTKEDEFILNLSSATPQIKSALFVINRLNGINVKAVQVSSPEHASNENIGHDNDENIDELIEVNKDNKVNFIDRTIEDNAEKFSQALLKKTARDFIEKFDYKAALDILDQLSDFPNLKSVREEIRDVVNCLSKQDVPKGLRHKKLKEEEQKILSAYLTIELQRERGNVSESFIRIKNLTEFILEDYIEKRYPGLIDEYCEDIQKYYLSLFDYSKLLKATKEFKLKRTIAPIIDMNSSRNKVAHSLSPLDSDAVKQLGIAMKTLKTLVREQYHFSQSDFNFYHDLNKILLTKLN
notes: Csm6’ ribonuclease of the type III-A CRISPR system of Streptococcus thermophilus; 386 residues in the monomer (CARF 1-173, 6H 174-239, HEPN 240-386); Cloned in pEV5HisTEV between NcoI and BamHI; Crystallised with cA6 (8PE3) and without (8PCW); also called StCsm6’; WT StCsm6’; source: E. coli C43 (DE3), purified (HisTrap, TEV cleavage, second IMAC, SEC)
stoichiometry N [3]: 2

B2: StCsm6’ variant C223A:C292A:N209C:R85C, MTSL spin-labelled (enzyme, Streptococcus thermophilus, UniProt A0A0A7HFE6 1-386, looked up)
chain: MRVLISAVGDTDPFRNFHDGSLIHIARKYRPEKVILIFSEHTAKKQGNIEKALFSIAPNYEPELIIHDPIISDNEVHIFDVMFQCFSDILQEYYTKEDEFILNLSSATPQIKSALFVINRLNGINVKAVQVSSPEHASNENIGHDNDENIDELIEVNKDNKVNFIDRTIEDNAEKFSQALLKKTARDFIEKFDYKAALDILDQLSDFPCLKSVREEIRDVVNALSKQDVPKGLRHKKLKEEEQKILSAYLTIELQRERGNVSESFIRIKNLTEFILEDYIEKRYPGLIDEYAEDIQKYYLSLFDYSKLLKATKEFKLKRTIAPIIDMNSSRNKVAHSLSPLDSDAVKQLGIAMKTLKTLVREQYHFSQSDFNFYHDLNKILLTKLN
modifications: MTSL spin-labelled cysteine side chain R1 at 85 and 209
notes: Csm6’ ribonuclease of Streptococcus thermophilus, 386 residues in the monomer, with four substitutions; parent as m1; Variants were expressed and purified as described for the WT protein; also called R85C/N209C; R85R1/N209R1; source: E. coli C43 (DE3), purified as the WT protein, then spin-labelled with MTSL
binding result [4]: binds

B3: StCsm6’ variant C223A:C292A:N209C:D88C, MTSL spin-labelled (enzyme, Streptococcus thermophilus, UniProt A0A0A7HFE6 1-386, looked up)
chain: MRVLISAVGDTDPFRNFHDGSLIHIARKYRPEKVILIFSEHTAKKQGNIEKALFSIAPNYEPELIIHDPIISDNEVHIFDVMFQRFSCILQEYYTKEDEFILNLSSATPQIKSALFVINRLNGINVKAVQVSSPEHASNENIGHDNDENIDELIEVNKDNKVNFIDRTIEDNAEKFSQALLKKTARDFIEKFDYKAALDILDQLSDFPCLKSVREEIRDVVNALSKQDVPKGLRHKKLKEEEQKILSAYLTIELQRERGNVSESFIRIKNLTEFILEDYIEKRYPGLIDEYAEDIQKYYLSLFDYSKLLKATKEFKLKRTIAPIIDMNSSRNKVAHSLSPLDSDAVKQLGIAMKTLKTLVREQYHFSQSDFNFYHDLNKILLTKLN
modifications: MTSL spin-labelled cysteine side chain R1 at 88 and 209
notes: Csm6’ ribonuclease of Streptococcus thermophilus, 386 residues in the monomer, with four substitutions; parent as m1; Variants were expressed and purified as described for the WT protein; also called D88C/N209C; D88R1/N209R1; source: E. coli C43 (DE3), purified as the WT protein, then spin-labelled with MTSL
binding result [4]: binds
